# B1: Protein BANP (Homo sapiens), Q8N9N5 (parent)
# chain: MMSEHDLADVVQIAVEDLSPDHPVVLENHVVTDEDEPALKRQRLEINCQDPSIKTICLRLDSIEAKLQALEATCKSLEEKLDLVTNKQHSPIQVPMVAGSPLGATQTCNKVRCVVPQTTVILNNDRQNAIVAKMEDPLSNRAPDSLENVISNAVPGRRQNTIVVKVPGQEDSHHEDGESGSEASDSVSSCGQAGSQSIGSNVTLITLNSEEDYPNGTWLGDENNPEMRVRCAIIPSDMLHISTNCRTAEKMALTLLDYLFHREVQAVSNLSGQGKHGKKQLDPLTIYGIRCHLFYKFGITESDWYRIKQSIDSKCRTAWRRKQRGQSLAVKSFSRRTPNSSSYCPSEPMMSTPPPASELPQPQPQPQALHYALANAQQVQIHQIGEDGQVQVGHLHIAQVPQGEQVQITQDSEGNLQIHHVGQDGQLLEATRIPCLLAPSVFKASSGQVLQGAQLIAVASSDPAAAGVDGSPLQGSDIQVQYVQLAPVSDHTAGAQTAEALQPTLQPEMQLEHGAIQIQ
# partner: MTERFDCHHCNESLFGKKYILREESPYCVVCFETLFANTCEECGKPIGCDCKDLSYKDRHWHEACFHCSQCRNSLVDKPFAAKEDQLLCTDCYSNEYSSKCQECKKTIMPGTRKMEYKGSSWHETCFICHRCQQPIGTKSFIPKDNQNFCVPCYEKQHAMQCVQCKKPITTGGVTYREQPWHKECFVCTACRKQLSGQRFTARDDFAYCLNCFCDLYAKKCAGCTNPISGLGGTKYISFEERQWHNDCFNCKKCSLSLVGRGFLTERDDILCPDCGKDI
# B2: Medium-chain acyl-CoA ligase ACSF2, mitochondrial (Homo sapiens), Q96CM8 (parent)
# chain: MAVYVGMLRLGRLCAGSSGVLGARAALSRSWQEARLQGVRFLSSREVDRMVSTPIGGLSYVQGCTKKHLNSKTVGQCLETTAQRVPEREALVVLHEDVRLTFAQLKEEVDKAASGLLSIGLCKGDRLGMWGPNSYAWVLMQLATAQAGIILVSVNPAYQAMELEYVLKKVGCKALVFPKQFKTQQYYNVLKQICPEVENAQPGALKSQRLPDLTTVISVDAPLPGTLLLDEVVAAGSTRQHLDQLQYNQQFLSCHDPINIQFTSGTTGSPKGATLSHYNIVNNSNILGERLKLHEKTPEQLRMILPNPLYHCLGSVAGTMMCLMYGATLILASPIFNGKKALEAISRERGTFLYGTPTMFVDILNQPDFSSYDISTMCGGVIAGSPAPPELIRAIINKINMKDLVVAYGTTENSPVTFAHFPEDTVEQKAESVGRIMPHTEARIMNMEAGTLAKLNTPGELCIRGYCVMLGYWGEPQKTEEAVDQDKWYWTGDVATMNEQGFCKIVGRSKDMIIRGGENIYPAELEDFFHTHPKVQEVQVVGVKDDRMGEEICACIRLKDGEETTVEEIKAFCKGKISHFKIPKYIVFVTNYPLTISGKIQKFKLREQMERHLNL
# partner: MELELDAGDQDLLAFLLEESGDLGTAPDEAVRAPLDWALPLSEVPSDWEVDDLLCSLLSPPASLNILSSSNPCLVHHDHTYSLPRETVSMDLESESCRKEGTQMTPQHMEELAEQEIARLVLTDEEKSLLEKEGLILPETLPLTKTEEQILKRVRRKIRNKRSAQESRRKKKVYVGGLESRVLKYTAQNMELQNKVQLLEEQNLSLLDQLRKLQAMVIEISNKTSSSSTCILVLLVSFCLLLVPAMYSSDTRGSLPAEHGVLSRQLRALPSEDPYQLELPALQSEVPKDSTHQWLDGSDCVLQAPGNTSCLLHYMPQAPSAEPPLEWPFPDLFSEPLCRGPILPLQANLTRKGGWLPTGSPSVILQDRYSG
# B3: 26S proteasome non-ATPase regulatory subunit 9 (Homo sapiens), O00233 (parent)
# chain: MSDEEARQSGGSSQAGVVTVSDVQELMRRKEEIEAQIKANYDVLESQKGIGMNEPLVDCEGYPRSDVDLYQVRTARHNIICLQNDHKAVMKQVEEALHQLHARDKEKQARDMAEAHKEAMSRKLGQSESQGPPRAFAKVNSISPGSPASIAGLQVDDEIVEFGSVNTQNFQSLHNIGSVVQHSEGKPLNVTVIRRGEKHQLRLVPTRWAGKGLLGCNIIPLQR
# B4: Segment polarity protein dishevelled homolog DVL-2 (Homo sapiens), O14641 (parent)
# chain: MAGSSTGGGGVGETKVIYHLDEEETPYLVKIPVPAERITLGDFKSVLQRPAGAKYFFKSMDQDFGVVKEEISDDNARLPCFNGRVVSWLVSSDNPQPEMAPPVHEPRAELAPPAPPLPPLPPERTSGIGDSRPPSFHPNVSSSHENLEPETETESVVSLRRERPRRRDSSEHGAGGHRTGGPSRLERHLAGYESSSTLMTSELESTSLGDSDEEDTMSRFSSSTEQSSASRLLKRHRRRRKQRPPRLERTSSFSSVTDSTMSLNIITVTLNMEKYNFLGISIVGQSNERGDGGIYIGSIMKGGAVAADGRIEPGDMLLQVNDMNFENMSNDDAVRVLRDIVHKPGPIVLTVAKCWDPSPQAYFTLPRNEPIQPIDPAAWVSHSAALTGTFPAYPGSSSMSTITSGSSLPDGCEGRGLSVHTDMASVTKAMAAPESGLEVRDRMWLKITIPNAFLGSDVVDWLYHHVEGFPERREARKYASGLLKAGLIRHTVNKITFSEQCYYVFGDLSGGCESYLVNLSLNDNDGSSGASDQDTLAPLPGATPWPLLPTFSYQYPAPHPYSPQPPPYHELSSYTYGGGSASSQHSEGSRSSGSTRSDGGAGRTGRPEERAPESKSGSGSESEPSSRGGSLRRGGEASGTSDGGPPPSRGSTGGAPNLRAHPGLHPYGPPPGMALPYNPMMVVMMPPPPPPVPPAVQPPGAPPVRDLGSVPPELTASRQSFHMAMGNPSEFFVDVM
# partner: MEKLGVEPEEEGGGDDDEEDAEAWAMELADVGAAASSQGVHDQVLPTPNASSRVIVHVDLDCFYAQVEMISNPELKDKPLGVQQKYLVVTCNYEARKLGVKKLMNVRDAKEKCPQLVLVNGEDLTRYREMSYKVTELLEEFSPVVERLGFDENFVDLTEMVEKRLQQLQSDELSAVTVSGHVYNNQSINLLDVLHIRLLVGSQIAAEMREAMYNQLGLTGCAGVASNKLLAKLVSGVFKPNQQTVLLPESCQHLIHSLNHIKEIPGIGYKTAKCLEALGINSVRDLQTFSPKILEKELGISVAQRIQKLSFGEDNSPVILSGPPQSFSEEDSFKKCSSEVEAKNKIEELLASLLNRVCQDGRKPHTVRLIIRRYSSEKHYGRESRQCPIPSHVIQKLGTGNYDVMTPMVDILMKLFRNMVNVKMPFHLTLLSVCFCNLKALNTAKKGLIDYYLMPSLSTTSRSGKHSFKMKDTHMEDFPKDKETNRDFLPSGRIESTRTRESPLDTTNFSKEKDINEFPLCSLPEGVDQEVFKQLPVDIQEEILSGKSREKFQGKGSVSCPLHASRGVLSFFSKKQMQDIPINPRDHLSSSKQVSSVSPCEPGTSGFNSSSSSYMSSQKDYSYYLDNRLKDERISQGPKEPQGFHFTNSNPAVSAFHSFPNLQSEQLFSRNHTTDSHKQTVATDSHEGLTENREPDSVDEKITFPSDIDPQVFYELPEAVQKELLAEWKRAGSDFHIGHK
# B5: Phospholipid scramblase 4 (Homo sapiens), Q9NRQ2 (parent)
# chain: MSGVVPTAPEQPAGEMENQTKPPDPRPDAPPEYNSHFLPGPPGTAVPPPTGYPGGLPMGYYSPQQPSTFPLYQPVGGIHPVRYQPGKYPMPNQSVPITWMPGPTPMANCPPGLEYLVQLDNIHVLQHFEPLEMMTCFETNNRYDIKNNSDQMVYIVTEDTDDFTRNAYRTLRPFVLRVTDCMGREIMTMQRPFRCTCCCFCCPSARQELEVQCPPGVTIGFVAEHWNLCRAVYSIQNEKKENVMRVRGPCSTYGCGSDSVFEVKSLDGISNIGSIIRKWNGLLSAMADADHFDIHFPLDLDVKMKAMIFGACFLIDFMYFERSPPQRSR
# Variants of: B1
# Settings: with fhl2_human FHL2, Q14192
row,effect of a mutation on the interaction,Variant
1,with no effect,P348S

# Variants of: B2
# Settings: with creb3_human CREB3, O43889
row,effect of a mutation on the interaction,Variant
1,disrupting interaction strength,G19W
2,disrupting interaction strength,A34V

# Variants of: B3
# Settings: with prs6a_human PSMC3, P17980
# Sequence of prs6a_human PSMC3, P17980 (P17980 whole entry): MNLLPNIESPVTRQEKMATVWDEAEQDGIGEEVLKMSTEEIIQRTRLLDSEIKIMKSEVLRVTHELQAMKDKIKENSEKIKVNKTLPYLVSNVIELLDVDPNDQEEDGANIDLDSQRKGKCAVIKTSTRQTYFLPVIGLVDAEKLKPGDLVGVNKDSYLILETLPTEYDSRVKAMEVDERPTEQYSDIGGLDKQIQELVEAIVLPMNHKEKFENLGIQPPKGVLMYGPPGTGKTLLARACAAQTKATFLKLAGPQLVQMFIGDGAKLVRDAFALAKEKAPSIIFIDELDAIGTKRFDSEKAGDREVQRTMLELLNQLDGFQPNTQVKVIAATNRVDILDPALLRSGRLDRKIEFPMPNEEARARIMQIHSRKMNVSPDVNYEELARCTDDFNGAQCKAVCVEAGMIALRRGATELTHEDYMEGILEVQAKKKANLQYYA
row,effect of a mutation on the interaction,Variant
1,with no effect,R134W
2,with no effect,R110W
3,with no effect,E197G

# Variants of: B3
# Settings: with prs10_human PSMC6, P62333
# Sequence of prs10_human PSMC6, P62333 (P62333 whole entry): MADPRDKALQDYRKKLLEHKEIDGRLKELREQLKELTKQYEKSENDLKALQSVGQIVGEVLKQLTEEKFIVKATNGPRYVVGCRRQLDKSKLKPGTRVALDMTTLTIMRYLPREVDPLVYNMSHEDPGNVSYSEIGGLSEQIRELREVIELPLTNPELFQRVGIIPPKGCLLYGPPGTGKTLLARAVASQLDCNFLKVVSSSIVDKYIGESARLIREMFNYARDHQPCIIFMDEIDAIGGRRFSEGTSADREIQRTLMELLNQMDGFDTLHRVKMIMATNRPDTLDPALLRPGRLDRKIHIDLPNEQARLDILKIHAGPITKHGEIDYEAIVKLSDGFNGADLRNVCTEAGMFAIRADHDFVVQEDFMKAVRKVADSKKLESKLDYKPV
row,effect of a mutation on the interaction,Variant
1,with no effect,R134W
2,with no effect,R110W

# Variants of: B3
# Settings: with spn90_human NCKIPSD
row,effect of a mutation on the interaction,Variant
1,with no effect,R134W
2,with no effect,R110W
3,with no effect,E197G

# Variants of: B3
# Settings: with cc136_human CCDC136, Q96JN2
# Sequence of cc136_human CCDC136, Q96JN2 (Q96JN2 whole entry): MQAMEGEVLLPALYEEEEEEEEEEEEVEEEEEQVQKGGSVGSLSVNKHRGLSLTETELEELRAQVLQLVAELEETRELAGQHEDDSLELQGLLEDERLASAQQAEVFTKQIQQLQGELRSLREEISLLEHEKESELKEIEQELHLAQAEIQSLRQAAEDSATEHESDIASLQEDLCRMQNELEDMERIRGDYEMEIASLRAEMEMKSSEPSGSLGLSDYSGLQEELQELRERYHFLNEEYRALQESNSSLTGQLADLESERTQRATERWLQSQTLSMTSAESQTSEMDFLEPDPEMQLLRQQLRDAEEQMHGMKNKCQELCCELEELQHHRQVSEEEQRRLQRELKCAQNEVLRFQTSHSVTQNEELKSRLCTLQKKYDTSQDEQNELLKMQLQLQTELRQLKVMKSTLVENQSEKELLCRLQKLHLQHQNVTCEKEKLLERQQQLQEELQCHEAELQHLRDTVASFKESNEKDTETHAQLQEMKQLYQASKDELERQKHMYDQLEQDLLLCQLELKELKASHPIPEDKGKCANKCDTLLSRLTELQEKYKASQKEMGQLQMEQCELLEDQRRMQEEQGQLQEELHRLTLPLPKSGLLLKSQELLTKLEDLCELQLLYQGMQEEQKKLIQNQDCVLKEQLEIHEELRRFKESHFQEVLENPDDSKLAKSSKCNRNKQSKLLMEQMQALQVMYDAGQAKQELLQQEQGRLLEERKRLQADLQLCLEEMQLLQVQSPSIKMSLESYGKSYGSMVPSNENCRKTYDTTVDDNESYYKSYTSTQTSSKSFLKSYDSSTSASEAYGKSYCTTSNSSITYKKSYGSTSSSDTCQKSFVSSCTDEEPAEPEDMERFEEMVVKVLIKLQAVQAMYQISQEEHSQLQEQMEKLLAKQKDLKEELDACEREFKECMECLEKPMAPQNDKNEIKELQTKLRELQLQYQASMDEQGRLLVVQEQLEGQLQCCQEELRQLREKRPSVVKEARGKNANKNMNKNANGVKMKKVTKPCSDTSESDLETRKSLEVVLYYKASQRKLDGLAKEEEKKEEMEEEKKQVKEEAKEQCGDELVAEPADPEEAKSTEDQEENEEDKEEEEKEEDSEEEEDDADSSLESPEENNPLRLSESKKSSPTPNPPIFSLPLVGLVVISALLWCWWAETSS
row,effect of a mutation on the interaction,Variant
1,with no effect,V17A
2,with no effect,R110W

# Variants of: B4
# Settings: with poli_human POLI
row,effect of a mutation on the interaction,Variant
1,with no effect,A53V
2,with no effect,T535I

# Variants of: B5
# Settings: with pls1_human PLSCR1, O15162
# Sequence of pls1_human PLSCR1, O15162 (O15162 whole entry): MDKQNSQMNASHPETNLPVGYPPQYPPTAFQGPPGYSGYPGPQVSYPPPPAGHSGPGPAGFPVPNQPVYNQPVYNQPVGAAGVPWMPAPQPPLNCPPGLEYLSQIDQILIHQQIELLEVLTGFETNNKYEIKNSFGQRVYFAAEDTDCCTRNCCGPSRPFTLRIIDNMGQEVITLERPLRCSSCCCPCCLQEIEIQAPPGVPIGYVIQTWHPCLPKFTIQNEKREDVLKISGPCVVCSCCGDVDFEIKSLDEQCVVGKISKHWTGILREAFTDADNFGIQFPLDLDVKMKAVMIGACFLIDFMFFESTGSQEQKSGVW
row,effect of a mutation on the interaction,Variant
1,with no effect,I155V
2,with no effect,N34S
3,with no effect,A107S

# Variants of: B5
# Settings: with mtus2_human MTUS2, Q5JR59
# Sequence of mtus2_human MTUS2, Q5JR59 (Q5JR59 whole entry): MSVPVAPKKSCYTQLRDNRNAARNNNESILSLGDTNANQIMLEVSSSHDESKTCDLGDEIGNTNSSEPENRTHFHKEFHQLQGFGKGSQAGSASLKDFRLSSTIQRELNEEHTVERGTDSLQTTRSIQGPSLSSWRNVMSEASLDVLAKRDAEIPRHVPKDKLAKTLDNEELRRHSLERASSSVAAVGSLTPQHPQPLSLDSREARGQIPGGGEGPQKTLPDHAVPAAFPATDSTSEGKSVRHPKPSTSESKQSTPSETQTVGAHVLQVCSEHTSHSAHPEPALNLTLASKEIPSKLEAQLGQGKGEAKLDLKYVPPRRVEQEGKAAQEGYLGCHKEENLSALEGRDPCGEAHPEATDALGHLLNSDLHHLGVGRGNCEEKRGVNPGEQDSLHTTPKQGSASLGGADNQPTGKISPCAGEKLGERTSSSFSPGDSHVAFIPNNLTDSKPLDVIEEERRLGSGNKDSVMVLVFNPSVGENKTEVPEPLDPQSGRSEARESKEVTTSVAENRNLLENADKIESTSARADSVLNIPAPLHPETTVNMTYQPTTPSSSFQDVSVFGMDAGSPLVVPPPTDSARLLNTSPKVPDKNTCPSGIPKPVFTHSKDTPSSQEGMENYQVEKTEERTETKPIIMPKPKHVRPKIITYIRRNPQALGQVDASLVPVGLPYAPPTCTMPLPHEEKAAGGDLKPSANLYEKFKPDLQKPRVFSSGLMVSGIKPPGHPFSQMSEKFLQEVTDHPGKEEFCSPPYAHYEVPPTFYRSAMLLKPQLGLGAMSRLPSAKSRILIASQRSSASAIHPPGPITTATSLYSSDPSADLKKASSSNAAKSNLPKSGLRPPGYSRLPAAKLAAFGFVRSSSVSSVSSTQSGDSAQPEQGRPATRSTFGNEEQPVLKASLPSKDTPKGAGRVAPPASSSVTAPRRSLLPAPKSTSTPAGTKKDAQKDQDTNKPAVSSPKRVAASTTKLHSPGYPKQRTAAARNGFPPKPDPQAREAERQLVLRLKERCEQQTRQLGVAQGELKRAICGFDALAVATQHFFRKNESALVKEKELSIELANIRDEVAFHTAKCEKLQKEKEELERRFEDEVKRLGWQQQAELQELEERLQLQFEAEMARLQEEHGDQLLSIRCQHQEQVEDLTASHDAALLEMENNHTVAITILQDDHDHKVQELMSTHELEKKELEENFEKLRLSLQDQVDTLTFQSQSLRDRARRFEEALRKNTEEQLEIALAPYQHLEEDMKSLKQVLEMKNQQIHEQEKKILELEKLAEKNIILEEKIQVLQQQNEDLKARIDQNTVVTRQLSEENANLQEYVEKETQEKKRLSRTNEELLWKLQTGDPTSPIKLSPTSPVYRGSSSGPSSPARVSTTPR
row,effect of a mutation on the interaction,Variant
1,with no effect,I155V
2,with no effect,N34S
3,with no effect,A107S

# Variants of: B5
# Settings: with nt2na_human NOTCH2NLA
row,effect of a mutation on the interaction,Variant
1,with no effect,I155V
2,with no effect,N34S
3,with no effect,A107S
